A word on the koff: it is the rate constant with which the complex falls apart. A word on the kon: it is the rate constant with which the complex forms.

Positions count from the first letter of the chain named.

The chains are these.
T1: cynomolgus monkey FcγRIIa2 extracellular domain with C-terminal His-tag (cynomolgus monkey)
T1 construct: Expressed in FreeStyle 293 cells and purified; also called cyno FcγRIIa2; cynoFcgRIIa2; not shown: C-terminal His-tag
T1 chain: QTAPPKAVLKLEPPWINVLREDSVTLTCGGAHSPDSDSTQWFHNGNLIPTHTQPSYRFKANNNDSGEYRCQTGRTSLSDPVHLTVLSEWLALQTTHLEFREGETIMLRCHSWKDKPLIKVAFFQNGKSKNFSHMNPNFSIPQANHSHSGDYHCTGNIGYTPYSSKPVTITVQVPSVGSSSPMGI

T2: cynomolgus monkey FcγRIIb extracellular domain with C-terminal His-tag (cynomolgus monkey)
T2 construct: Expressed in FreeStyle 293 cells and purified; also called cyno FcγRIIb; cynoFcγRIIb; not shown: C-terminal His-tag
T2 chain: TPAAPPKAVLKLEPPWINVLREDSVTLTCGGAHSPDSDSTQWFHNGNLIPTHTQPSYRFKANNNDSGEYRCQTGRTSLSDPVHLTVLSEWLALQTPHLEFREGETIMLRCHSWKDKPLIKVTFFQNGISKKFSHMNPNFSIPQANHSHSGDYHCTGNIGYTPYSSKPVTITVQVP

T3: Human latent myostatin (human, UniProt O14793 25-266; O14793 267-375)
T3 construct: Biotinylated in the ELISAs; also called human myostatin latent form
T3 sequence 1: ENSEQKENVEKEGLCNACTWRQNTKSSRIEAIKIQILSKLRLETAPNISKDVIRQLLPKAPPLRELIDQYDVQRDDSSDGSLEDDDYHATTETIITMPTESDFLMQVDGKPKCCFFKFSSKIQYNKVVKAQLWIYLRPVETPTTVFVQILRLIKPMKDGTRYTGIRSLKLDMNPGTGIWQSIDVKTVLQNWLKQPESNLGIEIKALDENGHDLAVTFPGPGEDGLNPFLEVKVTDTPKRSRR
T3 sequence 2: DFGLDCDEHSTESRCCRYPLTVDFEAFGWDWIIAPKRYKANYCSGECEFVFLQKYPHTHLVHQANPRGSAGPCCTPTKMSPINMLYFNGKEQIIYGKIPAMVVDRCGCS

T4: Mouse latent myostatin (mouse, UniProt O08689 26-267; O08689 268-376)
T4 construct: signal 1-24
T4 sequence 1: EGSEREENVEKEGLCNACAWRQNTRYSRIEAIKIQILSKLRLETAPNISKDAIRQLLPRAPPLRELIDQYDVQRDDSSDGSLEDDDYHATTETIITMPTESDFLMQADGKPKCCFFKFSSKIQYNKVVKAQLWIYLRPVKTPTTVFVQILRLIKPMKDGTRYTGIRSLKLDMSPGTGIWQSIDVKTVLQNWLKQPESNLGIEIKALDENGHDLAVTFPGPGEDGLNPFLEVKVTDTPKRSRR
T4 sequence 2: T3 sequence 2

T5: Cynomolgus monkey latent myostatin (cynomolgus monkey, UniProt Q95J86 25-266; Q95J86 267-375)
T5 construct: signal 1-24; also called Cyno latent myostatin
T5 sequence 1: T3 sequence 1 with V52A
T5 sequence 2: T3 sequence 2

B1: M103205H795-MY172 / M103202L889-SK1 (antibody, human IgG1, kappa)
heavy: QVTLKESGPVLVKPTETLTLTCTVSGIDLSHDDISWVRQAPGKGLEWVGIISYAGSTYYASWAKGRLTISKDTSKNQVVLTMTNMDPVDTATYYCARGVPAYSHGGDLWGQGTLVTVSSASTKGPSVFPLAPSSKSTSGGTAALGCLVKDYFPEPVTVSWNSGALTSGVHTFPAVLQSSGLYSLSSVVTVPSSSLGTQTYICNVNHKPSNTKVDKKVEPKSCDKTHTCPPCPAPELLNGPSVFLFPPKPKDTLMISRTPEVTCVVVDVSEEDPEVKFNWYVDGVEVHNAKTKPREEQYNSTYRVVSVLTVLHQDWLNGKEYKCKVSNKALPAPIEKTISKAKGQPREPQVYTLPPSREEMTKNQVSLTCLVKGFYPSDIAVEWESNGQPENNYKTTPGVLDSDGSFFLYSKLTVDKSRWQQGNVFSCSVMHEALHNHYTQKSLSLSP
light: DIVMTQSPATLSLSPGERATLSCTSSQSVYHANWLSWFQQKPGQPPKLLIYWASTLAYGVPSRFSGSGSGTDFTLTISSLQPEDAATYYCAGGYGGGRYAFGQGTKVEIKRTVAAPSVFIFPPSDEQLKSGTASVVCLLNNFYPREAKVQWKVDNALQSGNSQESVTEQDSKDSTYSLSSTLTLSKADYEKHKVYACEVTHQGLSSPVTKSFNRGEC
notes: Position 396 variant derived from MY052, expressed with M103202L889-SK1 as light chain
B2: M103205H795-MY174 / M103202L889-SK1 (antibody, human IgG1, kappa)
heavy: B1 heavy with G398I
light: B1 light
notes: as for B1
B3: M103205H795-MY184 / M103202L889-SK1 (antibody, human IgG1, kappa)
heavy: B1 heavy with G398Y
light: B1 light
notes: as for B1
B4: M103205H795-MY179 / M103202L889-SK1 (antibody, human IgG1, kappa)
heavy: B1 heavy with G398R
light: B1 light
notes: as for B1
B5: M103205H795-MY177 / M103202L889-SK1 (antibody, human IgG1, kappa)
heavy: B1 heavy with G398N
light: B1 light
notes: as for B1
B6: M103205H795-MY180 / M103202L889-SK1 (antibody, human IgG1, kappa)
heavy: B1 heavy with G398S
light: B1 light
notes: as for B1
B7: M103205H795-MY181 / M103202L889-SK1 (antibody, human IgG1, kappa)
heavy: B1 heavy with G398T
light: B1 light
notes: as for B1
B8: M103205H795-MY183 / M103202L889-SK1 (antibody, human IgG1, kappa)
heavy: B1 heavy with G398W
light: B1 light
notes: as for B1
B9: M103205H795-MY173 / M103202L889-SK1 (antibody, human IgG1, kappa)
heavy: B1 heavy with G398H
light: B1 light
notes: as for B1
B10: M103205H795-MY175 / M103202L889-SK1 (antibody, human IgG1, kappa)
heavy: B1 heavy with G398K
light: B1 light
notes: as for B1
B11: M103205H795-MY182 / M103202L889-SK1 (antibody, human IgG1, kappa)
heavy: B1 heavy with G398V
light: B1 light
notes: as for B1
B12: M103205H795-MY178 / M103202L889-SK1 (antibody, human IgG1, kappa)
heavy: B1 heavy with G398Q
light: B1 light
notes: as for B1
B13: M103205H795-MY176 / M103202L889-SK1 (antibody, human IgG1, kappa)
heavy: B1 heavy with G398L
light: B1 light
notes: as for B1
B14: MS_M103205H000-SG1/M103202LO00-SK1 (antibody, human IgG1, kappa, V domains shown)
VH: QVTLKESGPVLVKPTETLTLTCTVSGIDLSSYDISWVRQAPGKGLEWVGIISYAGSTYYASWAKGRLTISKDTSKNQVVLTMTNMDPVDTATYYCARGVPAYSTGGDLWGQGTLVTVSS
VL: DIVMTQSPATLSLSPGERATLSCQSSQSVYDNNWLSWFQQKPGQPPKLLIYWASTLASGVPSRFSGSGSGTDFTLTISSLQPEDAATYYCAGGYGGGLYAFGQGTKVEIKR
notes: Humanized MST1032, not pH-dependent; also called MS1032LO00-SG1; Ab001

The first test has as its target T1, cynomolgus monkey FcγRIIa2 …. Briefly: SPR (Biacore), antibody captured on chip, FcgR extracellular domain as analyte, 25 C.
The molecule B1 registered a Kd of 2300 nM.
Take B2: the Kd came to 1600 nM.
The molecule B3 came in with a Kd of 2000 nM.
The molecule B4 returned a Kd of 2000 nM.
The molecule B5 registered a Kd of 1800 nM.
For B6, the Kd was 2700 nM.
B7 yielded a Kd of 2300 nM.
On the same count and under the same terms, in the case of B8 it was 2000 nM; in that of B9, 1800 nM.
On the same count and under the same terms, in the case of B10 it was 1500 nM; in that of B11, 2200 nM.
As for B12, the Kd stood at 2100 nM.
B13 registered a Kd of 1400 nM.

The target of another test is T2, cynomolgus monkey FcγRIIb extracellular …. The test is described as above.
Molecule B1 registered a Kd of 1200 nM.
For the molecule B2, the Kd came out at 650 nM.
Consider B3, for which the Kd worked out at 980 nM.
Molecule B4 displayed a Kd of 980 nM.
B5 yielded a Kd of 830 nM.
B6: the Kd stood at 1300 nM.
Same read-out and setting: in the case of B7 it was 1000 nM.
B8 displayed a Kd of 970 nM.
The molecule B9 showed a Kd of 780 nM.
The molecule B10 registered a Kd of 710 nM.
The molecule B11 registered a Kd of 960 nM.
As for B12, the Kd was found to be 950 nM.
B13 returned a Kd of 620 nM.

For another test, the target named is T3, Human latent myostatin. Briefly: SPR (BIACORE T200), 37 C, pH7.4, avidity condition (capture 185 RU), 1:1 fit; pH 7.4. (In general: Surface plasmon resonance follows binding to a sensor surface in real time, without labels.)
Consider B14, for which the Kd came to 0.075 nM, the koff amounted to 9.52e-05 s⁻¹ and the association rate constant (kon) was determined as 1.27e+06 M⁻¹ s⁻¹.

A further test deals with T4, Mouse latent myostatin. Described as above.
Molecule B14 returned a Kd of 0.0471 nM, an off-rate constant (koff) of 7.18e-05 s⁻¹ and an on-rate (kon) of 1.52e+06 M⁻¹ s⁻¹.

A further test concerns the target T5, Cynomolgus monkey latent myostatin. Described as above.
B14 displayed a Kd of 0.066 nM, a dissociation rate constant (koff) of 8.08e-05 s⁻¹ and a kon of 1.21e+06 M⁻¹ s⁻¹.

(Values after patent US20200317768A1 (published 2020).)
